Data: the supplement of paper PMC10126150
± gives the standard deviation of the averaged measurements.

Test system: ATP
Assay: switch fluorescence ratio, 500 uM ATP over buffer (Cy3 cluster intensity, sum of 5 cycles each) (fold (ratio)); higher = stronger signal-on switching upon ATP binding; sequences stand for … in TCGTCGGCAGCGTCAGATGTGTATAAGAGACAGTTTTTTTTTTTTTTTTTTTTTTTTT…TC
Details: aptamer strand: ATP DNA aptamer (quencher-CACCTGGGGGAGTATTGCGGAGGAAGG + anchor), 100 nM annealed; ATP concentration: 500 uM
In short: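 The fluorescence ratio divides summed target-cycle Cy3 intensity by summed buffer-cycle Cy3 intensity for each cluster and is averaged per switch-domain sequence. Cy3-labelled switching-strand clusters on a modified Illumina MiSeq flow-cell were annealed to 100 nM quencher-labelled ATP aptamer, then imaged in selection buffer and again after 15 min with 500 uM ATP at 22 °C. Five such cycles were run, with NaOH stripping and re-annealing between them, and clusters outside 100-1000 RFU were excluded.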
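Also: ATP exposure 15 min at 22 °C before imaging.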

| Sequence | switch fluorescence ratio |
| --- | --- |
| TTTTTGATAA | 0.9683 ± 0.0063 |
| TTTTTGCAAT | 1.43 ± 0.24 |
| TTTTTGCTAT | 1.06 ± 0.062 |
| TTTTTGGACT | 0.983 ± 0.012 |
| TTTTTGGCAA | 2.35 ± 2.2 |
| TTTTTGGCAG | 0.971 ± 0.024 |
| TTTTTGGGAT | 1.01 ± 0.031 |
| TTTTTGGGCC | 0.994 ± 0.017 |
| TTTTTGGGGG | 0.997 ± 0.035 |
| TTTTTGGGGT | 0.999 ± 0.034 |
| TTTTTGGGTA | 0.973 ± 0.027 |
| TTTTTGGTGA | 0.984 ± 0.013 |
| TTTTTGTAAA | 0.9936 ± 0.003 |
| TTTTTGTAT | 0.979 ± 0.015 |
| TTTTTGTGTT | 1 ± 0.025 |
| TTTTTGTTCT | 0.996 ± 0.024 |
| TTTTTGTTTC | 1.02 ± 0.046 |
| TTTTTTAAGA | 1.01 ± 0.025 |
| TTTTTTATCG | 1 ± 0.031 |
| TTTTTTCAAG | 0.978 ± 0.019 |

| Sequence | switch fluorescence ratio |
| --- | --- |
| TTTTTTCAGC | 1 ± 0.048 |
| TTTTTTCATC | 1.031 ± 0.0078 |
| TTTTTTCGAT | 0.995 ± 0.047 |
| TTTTTTCGGG | 0.993 ± 0.023 |
| TTTTTTGAAT | 0.995 ± 0.027 |
| TTTTTTGGCA | 0.982 ± 0.035 |
| TTTTTTGGTG | 1.02 ± 0.036 |
| TTTTTTGTGC | 0.9901 ± 0.0052 |
| TTTTTTGTTA | 1 ± 0.024 |
| TTTTTTTACA | 0.998 ± 0.01 |
| TTTTTTTCCT | 1.02 ± 0.066 |
| TTTTTTTGGA | 0.976 ± 0.021 |
| TTTTTTTGGC | 1.02 ± 0.029 |
| TTTTTTTGGG | 1 ± 0.036 |
| TTTTTTTTAC | 1.04 ± 0.029 |
| TTTTTTTTCG | 1.05 ± 0.12 |
| TTTTTTTTG | 0.987 ± 0.019 |
| TTTTTTTTGC | 1.02 ± 0.092 |
| TTTTTTTTTA | 1.01 ± 0.022 |
